# Molecular target: the molecule itself
# Assay: cryo-EM structure
protein,measurement,value
"Saccharomyces cerevisiae vacuolar transient receptor potential yeast 1 (TRPY1) channel, full length, wild type (natural protein, UniProt Q12324 1-675, looked up) MVSANGDLHLPISNEQCMPENNGSLGFEAPTPRQILRVTLNLKYLIDKVVPIVYDPNDIVCDHSEILSPKVVKLAYEACGGNPKDKANKRKYQSVIIFSLLKVCEWYSILATMEVHNAKLYETRNLASQQLCKLLIEREETRDLQFLFMQLLLRRYVINENDEDQEPLNALELATDMHCTTVIGSSGFQRCLKWIWRGWIVQNGLDPTTFIKDDSLAEVSLISHFNPVRLKAPVYQNYLQMIFSFLFLGLYTLVVNGKDSERVQSFDLLESIFYVFNTGFILDELTKLYYIGYAHLSFWNLFNDTTYLIITFAMGFRAMSVTPLNAKYSSEDWDKISYRVLSCAAPFVWSRLLLYLESQRFIGIMLVILKHMMKESIVFFFLLFLIMIGFTQGFLGLDSADGKRDITGPILGNLTITVLGLGSFDVFEEFAPPYAAILYYGYYFIVSVILLNILIALYSTAYQKVIDNADDEYMALMSQKTLRYIRAPDEDVYVSPLNLIEVFMTPIFRILPPKRAKDLSYTVMTIVYSPFLLLISVKETREARRIKYNRMKRLNDDANEYDTPWDLTDGYLDDDDGLFSDNRNSGMRATQLKNSRSLKLQRTAEQEDVHFKVPKKWYKNVKKCSPSFEQYDNDDTEDDAGEDKDEVKELTKKVENLTAVITDLLEKLDIKDKKE",stoichiometry N,4

# Source: PMC8741645 (Structure (London, England : 1993), 2021)
